Values quoted from earlier work in patent publication US20200069786A1, “COMPOSITION AND PROCESS FOR PREPARING VACCINE” (TREOS BIO ZRT., priority 2018, published 2020).
Read-outs that look alike come from different tables or passages of the source.

System: TSA
[1] = TSA expression rate in GASTRIC cancer
[2] = TSA expression rate in HEAD and NECK
[3] = TSA expression rate in MELANOMA
[4] = TSA expression rate in Esophageal

Molecule | TSA Expression Rate (ER) (BRAIN) | TSA Expression Rate (ER) (HCC) | TSA Expression Rate (ER) (LUNG) | Expression Rate (ER) % (TSA expression rate in CRC) | Expression Rate (ER) % [1] | Expression Rate (ER) % [2] | TSA Expression Rate (ER) (THYROID) | Expression Rate (ER) % [3] | TSA Expression Rate (ER) (BREAST) | TSA Expression Rate (ER) (OVARIAN) | Expression Rate (ER) % [4] | Expression Rate (ER) % (TSA expression rate in BLADDER cancer) | Expression Rate (ER) % (TSA expression rate in Kidney) | Expression Rate (ER) % (TSA expression rate in LUNG cancer)
TPTE (protein, UniProt P56180 1-551, looked up) Putative tyrosine-protein …: MNESPDPTDLAGVIIELGPNDSPQTSEFKGATEEAPAKESPHTSEFKGAARVSPISESVLARLSKFEVEDAENVASYDSKIKKIVHSIVSSFAFGLFGVFLVLLDVTLILADLIFTDSKLYIPLEYRSISLAIALFFLMDVLLRVFVERRQQYFSDLFNILDTAIIVILLLVDVVYIFFDIKLLRNIPRWTHLLRLLRLIILLRIFHLFHQKRQLEKLIRRRVSENKRRYTRDGFDLDLTYVTERIIAMSFPSSGRQSFYRNPIKEVVRFLDKKHRNHYRVYNLCSERAYDPKHFHNRVVRIMIDDHNVPTLHQMVVFTKEVNEWMAQDLENIVAIHCKGGTDRTGTMVCAFLIASEICSTAKESLYYFGERRTDKTHSEKFQGVKTPSQKRYVAYFAQVKHLYNWNLPPRRILFIKHFIIYSIPRYVRDLKIQIEMEKKVVFSTISLGKCSVLDNITTDKILIDVFDGLPLYDDVKVQFFYSNLPTYYDNCSFYFWLHTSFIENNRLYLPKNELDNLHKQKARRIYPSDFAVEILFGEKMTSSDVVAGSD | 0% | 39% | 36% | 4% | 0% | 0% |  |  |  |  |  |  |  | 
MART1 (protein, UniProt Q16655 1-118, looked up) Melanoma antigen recognized …: MPREDAHFIYGYPKKGHGHSYTTAEEAAGIGILTVILGVLLLIGCWYCRRRNGYRALMDKSLHVGTQCALTRRCPQEGFDHRDSKVSLQEKNCEPVVPNAPPAYEKLSAEQSPPPYSP | 0% |  |  |  |  |  | 0% | 89% |  |  |  |  |  | 
TRAG-3 (protein, UniProt Q9Y5P2 1-127, looked up) Chondrosarcoma-associated …: MWMGLIQLVEGVKRKDQGFLEKEFYHKTNIKMRCEFLACWPAFTVLGEAWRDQVDWSRLLRDAGLVKMSRKPRASSPLSNNHPPTPKRRGSGRHPLNPGPEALSKFPRQPGREKGPIKEVPGTKGSP | 0% | 26% | 54% | 7% | 10% |  |  |  | 10% | 83% | 55% |  |  | 
SAGE1 (protein, UniProt Q9NXZ1 1-904, looked up) Sarcoma antigen 1: MQASPLQTSQPTPPEELHAAAYVFTNDGQQMRSDEVNLVATGHQSKKKHSRKSKRHSSSKRRKSMSSWLDKQEDAAVTHSICEERINNGQPVADNVLSTAPPWPDATIAHNIREERMENGQSRTDKVLSTAPPQLVHMAAAGIPSMSTRDLHSTVTHNIREERMENGQPQPDNVLSTGPTGLINMAATPIPAMSARDLYATVTHNVCEQKMENVQPAPDNVLLTLRPRRINMTDTGISPMSTRDPYATITYNVPEEKMEKGQPQPDNILSTASTGLINVAGAGTPAISTNGLYSTVPHNVCEEKMENDQPQPNNVLSTVQPVIIYLTATGIPGMNTRDQYATITHNVCEERVVNNQPLPSNALSTVLPGLAYLATADMPAMSTRDQHATIIHNLREEKKDNSQPTPDNVLSAVTPELINLAGAGIPPMSTRDQYATVNHHVHEARMENGQRKQDNVLSNVLSGLINMAGASIPAMSSRDLYATITHSVREEKMESGKPQTDKVISNDAPQLGHMAAGGIPSMSTKDLYATVTQNVHEERMENNQPQPSYDLSTVLPGLTYLTVAGIPAMSTRDQYATVTHNVHEEKIKNGQAASDNVFSTVPPAFINMAATGVSSMSTRDQYAAVTHNIREEKINNSQPAPGNILSTAPPWLRHMAAAGISSTITRDLYVTATHSVHEEKMTNGQQAPDNSLSTVPPGCINLSGAGISCRSTRDLYATVIHDIQEEEMENDQTPPDGFLSNSDSPELINMTGHCMPPNALDSFSHDFTSLSKDELLYKPDSNEFAVGTKNYSVSAGDPPVTVMSLVETVPNTPQISPAMAKKINDDIKYQLMKEVRRFGQNYERIFILLEEVQGSMKVKRQFVEFTIKEAARFKKVVLIQQLEKALKEIDSHCHLRKVKHMRKR | 0% |  |  |  | 8% | 17% | 0% | 5% | 2% |  | 22% | 12% | 5% | 15%
